The assay deals with SUMO2-KG-TAMRA (human, UniProt P61956 1-95, C-terminal glycine linked by an isopeptide bond to the lysine side chain of the KG-TAMRA peptide). As to the kind of experiment: cell-based or functional assay.

Experimental findings from publication PMC10540217, “Native Semisynthesis of Isopeptide-Linked Substrates for Specificity Analysis of Deubiquitinases and Ubl Proteases” (Journal of the American Chemical Society, 2023) are described below.

Chain of SUMO2-KG-TAMRA (P61956 whole entry): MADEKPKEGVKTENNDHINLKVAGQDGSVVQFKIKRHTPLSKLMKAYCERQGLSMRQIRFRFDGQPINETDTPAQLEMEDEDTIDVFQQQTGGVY

B1: USPL1 catalytic domain (enzyme, human, UniProt Q5W0Q7 227-500, looked up)
chain: VQWKNAYALCWLDCILSALVHSEELKNTVTGLCSKEESIFWRLLTKYNQANTLLYTSQLSGVKDGDCKKLTSEIFAEIETCLNEVRDEIFISLQPQLRCTLGDMESPVFAFPLLLKLETHIEKLFLYSFSWDFECSQCGHQYQNRHMKSLVTFTNVIPEWHPLNAAHFGPCNNCNSKSQIRKMVLEKVSPIFMLHFVEGLPQNDLQHYAFHFEGCLYQITSVIQYRANNHFITWILDADGSWLECDDLKGPCSERHKKFEVPASEIHIVIWERK
For the molecule B1, the “catalytic efficiency in the fluorescence-polarization cleavage assay, SUMO2-KG-TAMRA against SUMO1-KG-TAMRA” value is ~25 fold.
